Our source for the Ki values is patent publication US20120135923A1 (IPSEN PHARMA S A S, published 2012).

Bridge positions count the residues as written; N and C are the ends. Square brackets hold non-standard residues; d marks the D form. Ends that are not written are not given here. 1Nal = N[C@@H](Cc1cccc2ccccc12)C(=O)O; 2Nal = N[C@@H](Cc1ccc2ccccc2c1)C(=O)O; d2Nal = N[C@H](Cc1ccc2ccccc2c1)C(=O)O; Bta = N[C@@H](Cc1csc2ccccc12)C(=O)O; Ac5c = NC1(C(=O)O)CCCC1; Apc = not defined here; βAla = NCCC(=O)O

Sequences and labels used below:
B1: Ac-c(Cys-Glu-His-D-2-Nal-Arg-Bal-Ala-Cys)-Pro-Pro-Lys-Asp-β-[…]NH2 (peptide)
peptide: Ac-CEH[d2Nal]R[Bta]ACPPKD[βAla]RRRRRQRRR-NH2
modifications: disulfide 1-8
B2: Ac-c(Cys-Glu-His-D-2-Nal-Arg-1-Nal-Ala-Cys)-Pro-Pro-Lys-Asp-β-[…]NH2 (peptide)
peptide: Ac-CEH[d2Nal]R[1Nal]ACPPKD[βAla]RKRRRQRRR-NH2
modifications: disulfide 1-8
B3: Ac-c(Cys-Glu-His-D-2-Nal-Arg-Trp-Ala-Cys)-Pro-Pro-Lys-Asp-NH2 (peptide)
peptide: Ac-CEH[d2Nal]RWACPPKD-NH2
modifications: disulfide 1-8
SMILES: CC(=O)N[C@H]1CSSC[C@@H](C(=O)N2CCC[C@H]2C(=O)N2CCC[C@H]2C(=O)N[C@@H](CCCCN)C(=O)N[C@@H](CC(=O)O)C(N)=O)NC(=O)[C@H](C)NC(=O)[C@H](Cc2c[nH]c3ccccc23)NC(=O)[C@H](CCCNC(=N)N)NC(=O)[C@@H](Cc2ccc3ccccc3c2)NC(=O)[C@H](Cc2c[nH]cn2)NC(=O)[C@H](CCC(=O)O)NC1=O
B4: c[Hydantoin(C(O)-(Asp-Apc))-D-2-Nal-Arg-Trp-Lys]-NH2 (peptide)
peptide: D[Apc][d2Nal]RWK-NH2
modifications: lactam 1-6; reading uncertain; also: hydantoin ring: N-terminal N of Asp1 and backbone N of residue 2 bridged by one C(O), bridge at N via C(O), other end not in the chain, printed as c[Hydantoin(C(O)-(Asp-Apc))-D-2-Nal-Arg-Trp-Lys]-NH2
B5: c[Hydantoin(C(O)-(Asp-A5c))-D-2-Nal-Arg-Trp-Lys]-NH2 (peptide)
peptide: D[Ac5c][d2Nal]RWK-NH2
modifications: lactam 1-6; also: hydantoin ring: N-terminal N of Asp1 and backbone N of residue 2 bridged by one C(O), bridge at N via C(O), other end not in the chain
B6: Ac-c(Cys-Glu-His-D-2-Nal-Arg-2-Nal-Ala-Cys)-Pro-Pro-Lys-Asp-β-Ala-Tyr-Gly-Arg-Lys-Lys-Arg-Arg-Gln-Arg-Arg-Arg-NH2 (peptide)
peptide: CEHXRXACPPKDXYGRKKRRQRRR
modifications: N-terminal Ac; D-2-Nal at 4; 2-Nal at 6; β-Ala at 13; disulfide Cys1-Cys8; C-terminal NH2
B7: Ac-c(Cys-Glu-His-D-2-Nal-Arg-2-Nal-Ala-Cys)-Pro-Pro-Lys-Asp-β-[…]NH2 (peptide)
peptide: Ac-CEH[d2Nal]R[2Nal]ACPPKD[βAla]YGRKRRRQRRR-NH2
modifications: disulfide 1-8
SMILES: CC(=O)N[C@H]1CSSC[C@@H](C(=O)N2CCC[C@H]2C(=O)N2CCC[C@H]2C(=O)N[C@@H](CCCCN)C(=O)N[C@@H](CC(=O)O)C(=O)NCCC(=O)N[C@@H](Cc2ccc(O)cc2)C(=O)NCC(=O)N[C@@H](CCCNC(=N)N)C(=O)N[C@@H](CCCCN)C(=O)N[C@@H](CCCNC(=N)N)C(=O)N[C@@H](CCCNC(=N)N)C(=O)N[C@@H](CCCNC(=N)N)C(=O)N[C@@H](CCC(N)=O)C(=O)N[C@@H](CCCNC(=N)N)C(=O)N[C@@H](CCCNC(=N)N)C(=O)N[C@@H](CCCNC(=N)N)C(N)=O)NC(=O)[C@H](C)NC(=O)[C@H](Cc2ccc3ccccc3c2)NC(=O)[C@H](CCCNC(=N)N)NC(=O)[C@@H](Cc2ccc3ccccc3c2)NC(=O)[C@H](Cc2c[nH]cn2)NC(=O)[C@H](CCC(=O)O)NC1=O
B8: Ac-c(Cys-Glu-His-D-2-Nal-Arg-Bal-Ala-Cys)-Pro-Pro-Lys-Asp-β-[…]NH2 (peptide)
peptide: Ac-CEH[d2Nal]R[Bta]ACPPKD[βAla]YGRRKRRQRRR-NH2
modifications: disulfide 1-8
SMILES: CC(=O)N[C@H]1CSSC[C@@H](C(=O)N2CCC[C@H]2C(=O)N2CCC[C@H]2C(=O)N[C@@H](CCCCN)C(=O)N[C@@H](CC(=O)O)C(=O)NCCC(=O)N[C@@H](Cc2ccc(O)cc2)C(=O)NCC(=O)N[C@@H](CCCNC(=N)N)C(=O)N[C@@H](CCCNC(=N)N)C(=O)N[C@@H](CCCCN)C(=O)N[C@@H](CCCNC(=N)N)C(=O)N[C@@H](CCCNC(=N)N)C(=O)N[C@@H](CCC(N)=O)C(=O)N[C@@H](CCCNC(=N)N)C(=O)N[C@@H](CCCNC(=N)N)C(=O)N[C@@H](CCCNC(=N)N)C(N)=O)NC(=O)[C@H](C)NC(=O)[C@H](Cc2csc3ccccc23)NC(=O)[C@H](CCCNC(=N)N)NC(=O)[C@@H](Cc2ccc3ccccc3c2)NC(=O)[C@H](Cc2c[nH]cn2)NC(=O)[C@H](CCC(=O)O)NC1=O
B9: Ac-c(Cys-Glu-His-D-2-Nal-Arg-Bal-Ala-Cys)-Pro-Pro-Lys-Asp-β-[…]NH2 (peptide)
peptide: Ac-CEH[d2Nal]R[Bta]ACPPKD[βAla]YGRRRRRQRRR-NH2
modifications: disulfide 1-8
SMILES: CC(=O)N[C@H]1CSSC[C@@H](C(=O)N2CCC[C@H]2C(=O)N2CCC[C@H]2C(=O)N[C@@H](CCCCN)C(=O)N[C@@H](CC(=O)O)C(=O)NCCC(=O)N[C@@H](Cc2ccc(O)cc2)C(=O)NCC(=O)N[C@@H](CCCNC(=N)N)C(=O)N[C@@H](CCCNC(=N)N)C(=O)N[C@@H](CCCNC(=N)N)C(=O)N[C@@H](CCCNC(=N)N)C(=O)N[C@@H](CCCNC(=N)N)C(=O)N[C@@H](CCC(N)=O)C(=O)N[C@@H](CCCNC(=N)N)C(=O)N[C@@H](CCCNC(=N)N)C(=O)N[C@@H](CCCNC(=N)N)C(N)=O)NC(=O)[C@H](C)NC(=O)[C@H](Cc2csc3ccccc23)NC(=O)[C@H](CCCNC(=N)N)NC(=O)[C@@H](Cc2ccc3ccccc3c2)NC(=O)[C@H](Cc2c[nH]cn2)NC(=O)[C@H](CCC(=O)O)NC1=O
B10: Ac-c(Cys-Glu-His-D-2-Nal-Arg-Bal-Ala-Cys)-Pro-Pro-Lys-Asp-β-[…]NH2 (peptide)
peptide: Ac-CEH[d2Nal]R[Bta]ACPPKD[βAla]YGRKRRRQRRR-NH2
modifications: disulfide 1-8
B11: Ac-c(Cys-Glu-His-D-2-Nal-Arg-1-Nal-Ala-Cys)-Pro-Pro-Lys-Asp-β-[…]NH2 (peptide)
peptide: Ac-CEH[d2Nal]R[1Nal]ACPPKD[βAla]YGRKRRRQRRR-NH2
modifications: disulfide 1-8
B12: Ac-c(Cys-Glu-His-D-2-Nal-Arg-1-Nal-Ala-Cys)-Pro-Pro-Lys-Asp-β-[…]NH2 (peptide)
peptide: Ac-CEH[d2Nal]R[1Nal]ACPPKD[βAla]YGRRKRRQRRR-NH2
modifications: disulfide 1-8
SMILES: CC(=O)N[C@H]1CSSC[C@@H](C(=O)N2CCC[C@H]2C(=O)N2CCC[C@H]2C(=O)N[C@@H](CCCCN)C(=O)N[C@@H](CC(=O)O)C(=O)NCCC(=O)N[C@@H](Cc2ccc(O)cc2)C(=O)NCC(=O)N[C@@H](CCCNC(=N)N)C(=O)N[C@@H](CCCNC(=N)N)C(=O)N[C@@H](CCCCN)C(=O)N[C@@H](CCCNC(=N)N)C(=O)N[C@@H](CCCNC(=N)N)C(=O)N[C@@H](CCC(N)=O)C(=O)N[C@@H](CCCNC(=N)N)C(=O)N[C@@H](CCCNC(=N)N)C(=O)N[C@@H](CCCNC(=N)N)C(N)=O)NC(=O)[C@H](C)NC(=O)[C@H](Cc2cccc3ccccc23)NC(=O)[C@H](CCCNC(=N)N)NC(=O)[C@@H](Cc2ccc3ccccc3c2)NC(=O)[C@H](Cc2c[nH]cn2)NC(=O)[C@H](CCC(=O)O)NC1=O
B13: Ac-c(Cys-Glu-His-D-2-Nal-Arg-2-Nal-Ala-Cys)-Pro-Pro-Lys-Asp-β-[…]NH2 (peptide)
peptide: Ac-CEH[d2Nal]R[2Nal]ACPPKD[βAla]RRRRRRQRRR-NH2
modifications: disulfide 1-8
B14: Ac-c(Cys-Glu-His-D-2-Nal-Arg-2-Nal-Ala-Cys)-Pro-Pro-Lys-Asp-β-[…]NH2 (peptide)
peptide: Ac-CEH[d2Nal]R[2Nal]ACPPKD[βAla]YGRRKRRQRRR-NH2
modifications: disulfide 1-8
B15: Ac-Nle-c(Cys-D-Ala-His-D-Phe-Arg-Trp-Cys)-Doc-Tyr-Gly-Arg-Lys-Lys-Arg-Arg-Gln-Arg-Arg-Arg-NH2 (peptide)
peptide: XCAHFRWCXYGRKKRRQRRR
modifications: N-terminal Ac; Nle at 1; D-Ala at 3; D-Phe at 5; Doc at 9; disulfide Cys2-Cys8; C-terminal NH2

T4 sequence (P32245 whole entry): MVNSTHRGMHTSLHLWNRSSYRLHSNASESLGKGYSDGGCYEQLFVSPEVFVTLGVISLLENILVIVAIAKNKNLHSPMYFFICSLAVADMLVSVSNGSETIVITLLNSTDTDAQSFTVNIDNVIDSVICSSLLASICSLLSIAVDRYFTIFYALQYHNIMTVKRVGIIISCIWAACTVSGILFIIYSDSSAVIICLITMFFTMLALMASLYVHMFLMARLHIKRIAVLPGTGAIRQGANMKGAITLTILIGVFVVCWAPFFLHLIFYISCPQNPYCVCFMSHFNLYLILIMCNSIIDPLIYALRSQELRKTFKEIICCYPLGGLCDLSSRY
T3 sequence (P41968 whole entry): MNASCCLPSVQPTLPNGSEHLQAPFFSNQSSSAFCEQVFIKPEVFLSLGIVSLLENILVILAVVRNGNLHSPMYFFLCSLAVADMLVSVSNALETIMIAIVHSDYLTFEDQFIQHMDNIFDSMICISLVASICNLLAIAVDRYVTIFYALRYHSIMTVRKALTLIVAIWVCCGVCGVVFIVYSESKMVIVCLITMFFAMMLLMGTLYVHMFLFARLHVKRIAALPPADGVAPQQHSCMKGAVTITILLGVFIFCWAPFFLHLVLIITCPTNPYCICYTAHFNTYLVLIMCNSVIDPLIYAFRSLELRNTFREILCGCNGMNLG

For the first test, the target named is T1, human melanocortin receptor subtype 1 (hMC1-R) (human, UniProt Q01726 1-317).
T1 construct: whole, on cells; membranes of CHO-K1 cells
T1 sequence (Q01726 whole entry): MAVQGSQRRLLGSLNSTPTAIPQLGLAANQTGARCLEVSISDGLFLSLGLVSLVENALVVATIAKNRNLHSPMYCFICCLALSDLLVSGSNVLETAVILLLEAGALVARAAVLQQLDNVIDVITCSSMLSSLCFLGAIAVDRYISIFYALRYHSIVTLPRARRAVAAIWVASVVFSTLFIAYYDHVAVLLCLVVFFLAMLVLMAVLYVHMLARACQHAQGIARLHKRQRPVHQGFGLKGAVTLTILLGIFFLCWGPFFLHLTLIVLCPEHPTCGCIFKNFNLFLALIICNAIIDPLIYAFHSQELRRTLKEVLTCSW
The test can be described thus: [125I]-NDP-α-MSH competition, membranes. On the procedure:
(§1) Cellular membranes used for the in vitro receptor binding assays were obtained from transgenic CHO-K1 cells stably expressing hMC-R receptor subtypes 1, 3, 4 or 5. […] The pellets were resuspended in the same buffer and centrifuged at 50,000 g for 10 minutes at approximately 4° C. The washed pellets containing the cellular membranes were stored at approximately −80° C.
(§2) Competitive inhibition of [¹²⁵I](Tyr²)-(Nle⁴-D-Phe⁷)α-MSH ([¹²⁵I]-NDP-α-MSH, Amersham Biosciences®) binding was carried out in polypropylene 96 well plates. Cell membranes (1-10 μg protein/well) prepared as described above were incubated in 50 mM Tris-HCl at pH 7.4 containing 0.2% bovine serum albumin (BSA), 5 mM MgCl₂, 1 mM CaCl₂ and 0.1 mg/mL bacitracin, with increasing concentrations of the test compound and 0.1-0.3 nM […] for approximately 90-120 minutes at approximately 37° C. Bound [¹²⁵I]-NDP-α-MSH ligand was separated from free [¹²⁵I]-NDP-α-MSH by filtration through GF/C glass fiber filter plates (Unifilter®; Packard) presoaked with 0.1% (w/v) polyethylenimine (PEI), using a Packard Filtermate® harvester. Filters were washed three times with 50 mM Tris-HCl at pH 7.4 at a temperature of approximately 0-4° C. and then assayed for radioactivity using a Packard Topcount® scintillation counter. Binding data were analyzed by computer-assisted non-linear regression analysis (XL fit; IDBS).
In turn, B1 registered a Ki of 3.86 nM. This counts as single-digit nanomolar.
As to B2, the Ki was 2.12 nM.
Still for that read-out and setting: the figure for B3 is 49.9 nM; for B4 it is 1280 nM; for B5 it is 9940 nM.
On the same count and under the same terms, the result for B6 reads 1.74 nM; that for B7, 1.49 nM; that for B8, 2.24 nM.
As to B9, the Ki turned out to be 3.07 nM.
Same read-out and setting: the figure for B10 is 2.14 nM; for B11 it is 1.5 nM.
For the molecule B12, the Ki turned out to be 1.75 nM.
On the same count and under the same terms, the result for B13 reads 3.65 nM.

In a further test the target is T2, human melanocortin receptor subtype 5 (hMC5-R) (human, UniProt P33032 1-325).
T2 construct: whole, on cells; membranes of CHO-K1 cells
T2 sequence (P33032 whole entry): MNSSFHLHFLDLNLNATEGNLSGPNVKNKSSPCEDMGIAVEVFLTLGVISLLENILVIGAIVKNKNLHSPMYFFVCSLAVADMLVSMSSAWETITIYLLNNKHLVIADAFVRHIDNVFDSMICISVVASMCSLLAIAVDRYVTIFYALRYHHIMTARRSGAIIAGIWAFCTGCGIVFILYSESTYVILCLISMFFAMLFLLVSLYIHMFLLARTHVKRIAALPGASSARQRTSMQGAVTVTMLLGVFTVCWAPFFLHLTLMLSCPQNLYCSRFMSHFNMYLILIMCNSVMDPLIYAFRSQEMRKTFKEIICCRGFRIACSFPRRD
The test can be described thus: [125I]-NDP-α-MSH competition, membranes. On the procedure:
as §1, §2
For B1, the affinity corresponds to a Ki of 38.3 nM.
The same measure, in the same setting: the result for B2 reads 27.5 nM.
On the same count and under the same terms, the figure for B3 is 218 nM; for B6 it is 4.38 nM.
Same read-out and setting: the result for B7 reads 3.13 nM.
In turn, B8 displayed a Ki of 16.4 nM.
On the same count and under the same terms, the result for B9 reads 31.1 nM.
Same read-out and setting: the result for B14 reads 15.3 nM.
Same read-out and setting: the figure for B12 is 16.8 nM.

A further test has as its target T3, human melanocortin receptor subtype 3 (hMC3-R) (human, UniProt P41968 1-323).
T3 construct: whole, on cells; membranes of CHO-K1 cells
The test can be described thus: [125I]-NDP-α-MSH competition, membranes. On the procedure: as §1, §2
On to B1, for which the Ki was found to be 4.97 nM.
Still for that read-out and setting: the figure for B2 is 3.99 nM; for B3 it is 9 nM; for B4 it is 2760 nM.
Same read-out and setting: the result for B5 reads 2390 nM; that for B6, 0.59 nM; that for B7, 0.604 nM.
For B8, affinity was put at a Ki of 1.57 nM.
The same measure, in the same setting: the figure for B9 is 4.05 nM; for B14 it is 1.12 nM; for B10 it is 1.12 nM.
On the same count and under the same terms, the result for B11 reads 1.61 nM; that for B12, 1.74 nM.
Still for that read-out and setting: the figure for B15 is 0.699 nM; for B13 it is 2.26 nM.

Another test addresses T4, human melanocortin receptor subtype 4 (hMC4-R) (human, UniProt P32245 1-332).
T4 construct: whole, on cells; membranes of CHO-K1 cells
The test can be described thus: [125I]-NDP-α-MSH competition, membranes. On the procedure:
as §1, §2
The molecule B1 displayed a Ki of 0.192 nM.
Same read-out and setting: the figure for B3 is 0.569 nM; for B4 it is 266 nM.
Still for that read-out and setting: the figure for B5 is 44.6 nM.
Still for that read-out and setting: the result for B6 reads 0.17 nM; that for B7, 0.865 nM.
In turn, B8 had a Ki of 0.437 nM.
Still for that read-out and setting: the result for B9 reads 0.498 nM; that for B14, 0.223 nM.
On the same count and under the same terms, the result for B10 reads 0.624 nM; that for B11, 0.301 nM; that for B12, 0.15 nM.
The same measure, in the same setting: the result for B15 reads 0.596 nM; that for B13, 0.261 nM.

The term Ki denotes the dissociation constant of the complex between target and ligand, obtained from inhibition or displacement. The low end stands for higher affinity, the high end for lower affinity.
